Measured values published in patent US20170355953A1 (OSAKA UNIVERSITY, published 2017).

Target: T1, N-terminally TARGET-tagged human afamin (human, UniProt P43652 22-599)
T1 construct: also called hAFM; (TARGET-tagged) afamin; not shown: N-terminal TARGET tag
T1 sequence (looked up): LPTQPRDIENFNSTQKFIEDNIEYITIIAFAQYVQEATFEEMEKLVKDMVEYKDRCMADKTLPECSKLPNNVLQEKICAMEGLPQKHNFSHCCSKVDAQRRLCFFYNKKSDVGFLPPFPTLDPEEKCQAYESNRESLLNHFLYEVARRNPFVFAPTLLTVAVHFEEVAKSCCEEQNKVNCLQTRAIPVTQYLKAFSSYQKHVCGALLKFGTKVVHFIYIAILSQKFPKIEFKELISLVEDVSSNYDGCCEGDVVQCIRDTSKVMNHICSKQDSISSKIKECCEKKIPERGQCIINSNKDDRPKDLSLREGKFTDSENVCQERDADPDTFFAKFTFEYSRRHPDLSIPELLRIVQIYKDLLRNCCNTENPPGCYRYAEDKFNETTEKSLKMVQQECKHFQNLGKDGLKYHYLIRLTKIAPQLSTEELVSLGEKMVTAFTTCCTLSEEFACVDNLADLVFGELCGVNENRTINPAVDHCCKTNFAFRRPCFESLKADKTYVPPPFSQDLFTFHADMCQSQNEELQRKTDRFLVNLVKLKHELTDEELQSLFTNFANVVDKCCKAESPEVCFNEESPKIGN
Test: co-immunoprecipitation on P20.1-sepharose (TARGET tag on afamin), western blotting with biotin-modified NZ-1
Method: The transfected cells of each type were cultured for 90 hours in a serum-free culture medium, and the supernatants were separately harvested. To 1 mL of each supernatant, 20 μL of NZ-1-sepharose or P20.1-sepharose was added, and the mixture was rotated end over end for 1 hour. The sepharose was precipitated by centrifugation, and the supernatant was removed. After the sepharose was washed 3 times with 1 mL of TBS, 30 μL of SDS sample buffer was added, and elution was performed under heating at 95° C. for 2 minutes. The eluate was subjected to western blotting using biotin-modified NZ-1.

B1: N-terminally PA-tagged human Wnt3 (ligand)
chain: GVAMPGAEDDVVGYPIWWSLALGQQYTSLGSQPLLCGSIPGLVPKQLRFCRNYIEIMPSVAEGVKLGIQECQHQFRGRRWNCTTIDDSLAIFGPVLDKATRESAFVHAIASAGVAFAVTRSCAEGTSTICGCDSHHKGPPGEGWKWGGCSEDADFGVLVSREFADARENRPDARSAMNKHNNEAGRTTILDHMHLKCKCHGLSGSCEVKTCWWAQPDFRAIGDFLKDKYDSASEMVVEKHRESRGWVETLRAKYSLFKPPTERDLVYYENSPNFCEPNPETGSFGTRDRTCNVTSHGIDGCDLLCCGRGHNTRTEKRKEKCHCIFHWCCYVSCQECIRIYDVHTCK
Does B1 bind?
Result: binds
